# According to the DeepSol protein solubility set:
# Experiment: soluble on expression in E. coli; label from the status in PepcDB or PDB records
row,Sequence,soluble on expression in E. coli
1,MGMKFRVVCRKLYDYVRYDLKEIAFPSSLPDPPHIKKRPKLTLKDKWCILKEATRLYGASWVRDIGPDLRPNDYKKVKEEPDIKTEEGSSEPTTVEDLLGALKGGAEKAKPALQRMYMARASNYTDALKNYVESYKEGLKEHLEEEAMGKGHRQGNDATKPPQSPSS,soluble
2,MGMLDVSLHKITQKSQSLLHRTADRHLRLAVTGLSGAGKTAFITGLVNQLLNSGAVSTVSHSRQNGLPLWQVSREQRLLGVKRAMQPDLEIASFDYQGAMLALTSNPPTWPESTRTISELRLAIKYRPEKGLLAKFADAATLYLDIVDYPGEWLLDLPMLRQSYIEWCTTQQQRIAVLKSSPLYAGFETSLNALNLAAMADESELKRLADQYQQLLHDLVHVQGYYQAQPGRMLLPGEWQGAPLLAFFPLLSVTNAQWSNLKQSDKHSAFHVLEKRYQEYVAKVVKPFYKQHFAGFDRQVVLVDCFSALNRGKSQFEDMGAALNAIMESFQYGQSSYLRRLFAPRIDRLLFAASKVDHVTRDQQSHVLSLLTDMLKHSQHFAGFEGCKVETMAISAIKATRHGMVTTQEGDVEVVQGTGLNGQALTLFPGEVPTRLPEPDFWREQGFNFIGFAPPDNTNVDPSSVHFDHIRLDHLLQYLVGDKLE,not soluble
3,MGMTRNLLAAGLAAVLALPALAAELVMVEQHGCEWCARWNEEIAPIYPKTAEGAFAPLRRVDLRAIPADLETARRVVFTPTFLIVEDGRELARLEGYPGEDFFWPLLEQLLVDHAGFVPKKPGSS,not soluble
4,MGNASENFDIEDLMSYGDDLINLLNVKNGFDIISQSSEQFKALNFACHEDFNQIQGSIEDCKTKLYACKKKTEEAYSDIAAEDEIERLQKELDEEMEREFKLKDELR,soluble
5,MGNGDKVMSHWSFHIPRLHHHEHDHEKVPKGCLAVKVGQGEEQERFVIPVMYFNHPLFGQLLKEAEEEFGFAQKGTITIPCHVEEFRYVQGLIDRENTRFLGTNLLDHHHHHHNHLIRCFRV,not soluble
6,MGNKIHPIGFRLGITRDWESRWYAGKKQYRHLLLEDQRIRGLLEKELYSAGLARVDIERAADNVAVTVHVAKPGVVIGRGGERIRVLREELAKLTGKNVALNVQEVQNPNLSAPLVAQRVAEQIERRFAVRRAIKQAVQRVMESGAKGAKVIVSGRIGGAEQARTEWAAQGRVPLHTLRANIDYGFALARTTYGVLGVKAYIFLGEVIGGQKPKARPELPKAEERPRRRRPAVRVKKEE,soluble
7,MGNNQPGGMYKRDRPYDSEKSGSHSRSRGGIPSSSPSNEDECPVQMKIAKGDDKSKFPVVFKWNINNATPRQVYICGSWDGWNTKIPLVKSTSDFSTIVDLEPGKHEYKFMVDSKWVVDDNQQKTGNNLGGENNVVMIDEADFEVFDALDKDLASSNAGEALRNSHPTKESHDTPNDRELEKLHQFGQETPTRVDFNKAAAPPVLPPHLLQVILNKDTPVQCDPNVLPEPDHVMLNHLYALSIKDGVMVLSATHRYRKKFVTTLLYKPI,soluble
8,MGNQRHHYNDYEDVRMLKWVARNDKSLGPFGIITWQLYVEAYNCPYSVQSLCGRMRRQIVPNIDYYSRHLKSSDLISLERRFGSRLGAETRKYIRNLAVKTVKIVQVVASRPVEKNSEIEVQKVASLELQAAPTAPTTSAAQLGKTKSPGARTQRIERNDELSRDVFESSCASTIVEPEPPQEEPPQRSHNWKTEMRKIAGQAAQAINDLIRQTVENNDFNKKMFAELENQQNLDHLYGKMFDDPNKADWIMIDVKKFTENHLRMQYFRKIREELHKRFTNQHIIRAVFCFFQFFEYYVTVCVDESTDNYILLMNKVLEMSIKLLPLYIVHC,not soluble
9,MGNRKKKCGIVTFHSSHNYGSVLQAYAMVRVMQKMGLDAELIDFRHPRTTDMYEWRLWSTYKNWKWNLRELVLRGLFSFGKKREQVFSDFIENVLKKSKRVKDKNDIPDIYDILVCGSDQIWNPKASGENDPIYYLDFGTTTCKFSYAASSGSVRFGDENPELFKKYLQNLKSIGVRERFMQEYIKEELGLVSEINPDPTFLLNASEWSEIEKPYKGLPDNYLLIYTIKRPKETINFAHQVAVSLNLPTVQICNDRDLNALMHKDVDYRLMNVSPQQFLWLFHHASFIVTNTFHGNMFSVIYRKNFVHYGINSSDTRISTLHDEIRLKNKIVSSFEIDQRIIDYNLIEENVAYYCKCGLNFIQANINDD,not soluble
10,MGPLPRKGNMKQKITDYLDEIYGGTFTATHLQKLVTRLESAKRLITQRRKKHWDESDVVLITYADQFHSNDLKPLPTFNQFYHQWLQSIFSHVHLLPFYPWSSDDGFSVIDYHQVASEAGEWQDIQQLGECSHLMFDFVCNHMSAKSEWFKNYLQQHPGFEDFFIAVDPQTDLSAVTRPRALPLLTPFQMRDHSTRHLWTTFSDDQIDLNYRSPEVLLAMVDVLLCYLAKGAEYVRLDAVGFMWKEPGTSCIHLEKTHLIIKLLRSIIDNVAPGTVIITETNVPHKDNIAYFGAGDDEAHMVYQFSLPPLVLHAVQKQNVEALCAWAQNLTLPSSNTTWFNFLASHDGIGLNPLRGLLPESEILELVEALQQEGALVNWKNNPDGTRSPYEINVTYMDALSRRESSDEERCARFILAHAILLSFPGVPAIYIQSILGSRNDYAGVEKLGYNRAINRKKYHSKEITRELNDEATLRHAVYHELSRLITLRRSHNEFHPDNNFTIDTINSSVMRIPRSNADGNCLTGLFNVSKNIQHVNITNLHGRDLISEVDILGNEITLRPWQVMWIK,not soluble
11,MGPTQETYTIVRYQSGTFSKQLDEIVTESPITIKLNGEEYVTVVCTPNYIEDMVIGFLISEGIISSYNDVEELWVQKDNGIVHVKSSKVNPLYQTLYNKRYVTSCCGKGRQGFIFVNDAAKAKDLHDIHVKITPEECFYLMNTLQQSSTTFRQTGGVHNTALCDRNKILLSRMDIGRHNALDKIYGHCLRNDISVKGKIIAFSGRISSEILLKVSKIGCEIVLSKSAPTKLALQLAHDLGITVVGFIRNESCNIYTHPHRIDGYQSNNLEHHHHHH,soluble
12,MGQWANLKAKVIQLWENTHESISQVGLLGDETGIIKFTIWKNAELPLLEQGESYLLRSVVVGEYNDRFQVQVNKNSSIEKLSEPIEVGLEHHHHHH,not soluble
13,MGRHGKRGLNMTKQNSNTDRRSLQDCGVFSSAEYHSVGLSGGKDSSALLLLMLEKGMPIDSVIFADTGMDFPEMAAHIAKLDALLYRERGIHITTLRHPHGFEWLMFDEPKRKPSCLKNRARLGVPPYGNGWPGIKVRWCTGQLKTHLITKEVNRLKKEKNALHYIGIAADEAKRCKDAPNHRYPLVEWGVTEAQALQICYDRGFDFGGLYKIYHRASCWCCPLQRIGELRKLRQHHPELWARLWDMDNRARAQFGAGPLGQFKERWSIEQLDARFSREEKEERA,not soluble
14,MGRKKRLKVERKAVAENQSQILTMVTISETEMEKEKTYTALQKLKSVSNDLFEECQRVFANTSFCTAELENIVGCFDRYEKEISTIPDEYRTHPCVIKFQNCIRALCNVVAKKLNNTTRDVETQTNFQSPRITWRQRYWMPYLNK,not soluble
15,MGRMNVSMMRYLEGDHFRVLIAVEMGMKNHEVVPLALVSAIAGIHRGGVARTLNDLCKHSLVAFERSKKFDGYRLTIRGYDYLALRALCSREVVGSVGNQIGIGKESDVYVGGDPELNDLCLKFHRLGRTSFRKIKEKRDYHKKRKSASWLYLSRLAAAKEFAFLKALQERGFPVPKAVDVCRHLVVMQLVVGQTLCNVTHVEDAGALYDRLMALIVKMARHGVIHGDFNEFNLIMLEDERIVMIDFPQMVSIDHPNAEYYFDRDVTCVRTFFKRKFDYESEDWPKFDEVERKGNMDVLLEASGFTKKMALDLNKAYDEGDFLAHCEQELRNRQEEDLGEDEDDSDDSKSMEDIQEEPEDLEKDHEELQAQENTVKQQKIVLSQTTRFTDWLSDATNQLEAVDLDALKSEEGYKDIELPPEDFKRPADSENDDENDEDEEEGEEEDADGHVAVEEQVAKVVKKKRVPSGARSVASSAATFTAEDVKRRLALDRKRNKEKIRLKVKGKQSAVGRNRKDNKDVIAEYAGWI,not soluble
16,MGRRGMWYPLAAMKGVLEALHQGDYDTAIDLLTRKALFGREREAKEAWLLLAEVYALYGEEGLEKAHHALEEAYALGGLEYDPLYRSLLAELLALEGRPEREVLPLFLPSRDPRVRYHQAQALFYLGRLEEALEALEAGLPPHLAWRAEGLKGRILERLGRHGEAALAYERGAELALGLERYWLLLDAAAMWLEAGEGERALLALKEAEAAVGEEDPEDAATRHYLLARAHLLLGNPGLALEEIRKALALEEESGHKAYGTPLVEGQALLQLGRYEEAMASFREALARADAGERPHVLHEMGVAALDHGAYPEAEEHLRALVREEGYPYLAQAYADLAEALYRQGRYQEAEAAAREAVARGAVAAGELVLGHVAYDLLHLEEALEHYRKAAESAEEGSREWVGAQEMVVDTLAQLGYRFPEEMVRRGQAVLPYLHPADEWHAALTAYVERAQALLREGKRLN,soluble
17,MGRTTTPRDGDAALPPEYHGLHVAPVQPGHEAIEWLTPTNRSDRVRVVQHTCECRTTIYELCRSGGLMFIRRTVRTAKGARVHETERLITARMERLWMRLLLGQAR,not soluble
18,MGRVYYINSHGTLSRHENTLRFENAEVKKDIPVEDVEEIFVFAELSLNTKLLNFLASKGIPLHFFNYYGYYTGTFYPRESSVSGHLLIKQVEHYLDAQKRLYLAKSFVIGSILNLEYVYKISADTYLNKVKETNSIPELMSVEAEFRKLCYKKLEEVTGWELEKRTKRPPQNPLNALISFGNSLTYAKVLGEIYKTQLNPTVSYLHEPSTKRFSLSLDVAEVFKPIFVDNLIIRLIQENKIDKTHFSTELNMTFLNEIGRKVFLKAFNELLETTIFYPKLNRKVSHRTLIKLELYKLIKHLLEEEVYLPLNYGGLK,soluble
19,MGSDKIHHHHHHAAPSPDAQRVAAYAASHFQQAQIDTLKTLVGYDTRARDGLTPDTDPVFADFKRALGVKARMLGLDVEDNGYVMLISLSPEGAGTDVKKVGVITHGDVQPADPSLWPQSPYELTETADGRLVGRGAEDDKGPIATALYAMKAIKDSGIVLKRRIELLVYMAEESDWEPLKDFLKTYEPADINITLDAEYPVVTGEKGWSQIKLSLPRVMVKVGADTPVLTYFSGGSFASQIPQQASAVIQNTNPELVAALKARAKTLPIKTDFIDEPQGLTIHATGKAAHSSTPEDGINAVAYLAELLSPTADGGIPEWPMTTAAVTVDFLHSLVGTGLYGERFGKLGYSDEFMGPMTLAPTLITEGKEGTDVTLNLRRPVGRTPEALDKLAIAAIHGWQDARGTQVADIETYWGTPMLIDDAPHLETLLGVFGHYTNTAGPKPIAIGGSTNAKLFPNALSFGPAMPGMEYTGHSEYEFITRDQLKLNLEMYTAALVELAMRE,not soluble
20,MGSDKIHHHHHHAATVAEATSNPWDNYYIGKIDFKNLSPEAKGSAIYAAVIPDPEAYITKHARKVVETLYFTPEDSIPGIEEIHYTLKEYDGVSAKDGAPPSISIVYSTKWIEKSFANNDTAKVDYETRGVLYHELTHGFQLEPQGIGSYGTNKTFWAMIEGVADAVRYLNGGFTLEDRPKGGHYMDGYRTTGFFLAWLTQTKSPDFLRKFNRSTLEVIPWSFDGGVKYALGNDYDIDSLWKEYMATMGDEA,not soluble
